The values below come from publication PMC6093707, “Single-particle cryo-EM structure of a voltage-activated potassium channel in lipid nanodiscs” (eLife, 2018).

Series [1] deals with Kv channel auxiliary β subunit (rat) (UniProt P62483). As to the kind of experiment: negative staining electron microscopy; Kv chimera in lipid nanodiscs diluted to ~0.03 mg/ml, 0.7% uranyl formate; 2D class averages.
Series [2] has the same target. Kind of series: cryo-EM structure; Kv chimera α4β4 complex in MSP1E3D1 lipid nanodiscs (3:1:1 POPC:POPG:POPE); 0.7 mg/ml in 20 mM HEPES-KOH pH 7.5, 150 mM KCl, 2 mM TCEP; gold grids; C4 symmetry imposed.
Series [3] concerns the molecule itself. The series is described as above.

With “Kv channel auxiliary β subunit (from UniProt P62483 36-367) (natural protein)”, the stoichiometry N in series [1] and in series [2] was 4 throughout.

B1: Kv1.2–2.1 paddle chimera channel, α subunit (other)
chain: MTVATGDPVDEAAAHPGHPQDTYDPEADHECCERVVINISGLRFETQLKTLAQFPETLLGDPKKRMRYFDPLRNEYFFDRNRPSFDAILYYYQSGGRLRRPVNVPLDIFSEEIRFYELGEEAMEMFREDEGYIKEEERPLPENEFQRQVWLLFEYPESSGPARIIAIVSVMVILISIVSFCLETLPIFRDENEDMHGGGVTFHTYSQSTIGYQQSTSFTDPFFIVETLCIIWFSFEFLVRFFACPSKAGFFTNIMNIIDIVAIIPYYVTIFLTESNKSVLQFQNVRRVVQIFRIMRILRIFKLSRHSKGLQILGQTLKASMRELGLLIFFLFIGVILFSSAVYFAEADERDSQFPSIPDAFWWAVVSMTTVGYGDMVPTTIGGKIVGSLCAIAGVLTIALPVPVIVSNFNYFYHRETEGEEQAQYLQVTSCPKIPSSPDLKKSRSASTISKSDYMEIQEGVNNSNEDFREENLKTANCTLANTNYVNITKMLTDV
For B1, the “stoichiometry N” value in series [3] came to 4.
